One test deals with T1, pSmad3 (Mus musculus, UniProt Q8BUN5).
T1 construct: endogenous in cells; host or cells: AKR-2B cells
As to the kind of experiment: His pull down of pSmad3 by TAT-SNX9(SH3) fusion polypeptides. It is filed as binding. The note with it: lysates of TGFβ treated AKR-2B cultures. As to the method:
FIGS. 3A-E. Inhibition of Smad3 signaling by a defined region of the SH3 domain in SNX9. (A) Cartoon depicting constructs used for His pull down assays. AKR-2B lysates were incubated with the indicated TAT-SNX9(SH3) fusion polypeptide and immunoblotted for bound pSmad3 or total TAT-SNX9(SH3) fusion polypeptide (His). (B) Nuclear fractions were prepared and assessed as in FIG. 1B following transduction with the indicated TAT-SNX9(SH3) fusion polypeptide (Left). Quantitation (mean+/−sd) of nuclear pSmad2 or pSmad3 from 2 experiments (Right). (C) Immunofluorescence of nuclear Smad3 was determined as in FIG. 1C from 30 cells in each of two experiments in the absence (−) or presence (+) of 5 ng/mL TGFβ and the indicated TAT-SNX9(SH3) fusion polypeptide (1.5 μM). […]
FIGS. 4A-E. A point mutant of TAT-SH3-2 abolishes the inhibitory action on Smad3 responses. […] (E) AKR-2B cells were transiently transfected with a BMP (BRE), EGF (SRE), or PDGF (MMP-1) reporter construct and luciferase activity determined following 12 hour incubation in the absence (−) or presence (+) of the indicated ligand (10 ng/mL BMP4, EGF, or PDGF), inhibitor (10 μM Dorsomophin; 3 μM Lapatinib; 2 μM CP868) or TAT-SNX9(SH3) fusion polypeptide (1.5 μM). […]

Another test concerns AKR-2B cells. As to the kind of experiment: Smad3-regulated biological responses: scratch assays and soft agar colony formation. It is filed as cell-based. The note with it: FIGS. 4C and 4D: scratch assay (5 ng/mL TGFβ, 24 hours) and soft agar. The protocol:
FIGS. 4A-E. A point mutant of TAT-SH3-2 abolishes the inhibitory action on Smad3 responses. (A) Schematic depicting TAT-SNX9(SH3) fusion polypeptide constructs (Left). * in SH3-2M (mutant) reflects G to V mutations at amino acids 36-38. His pull down of pSmad3 bound to TAT-SNX9(SH3) fusion polypeptides was performed as in FIG. 3A (Middle). AKR-2B cells were transduced for 90 minutes with 1.5 μM of TAT-SH3-2, TAT-SH3-2M, or TAT-LC. Western analysis was performed for the indicated proteins following 24 hour treatment in the absence (−) or presence (+) of TGFβ (5 ng/mL) or SB431542 (10 μM) (Right). (B) qPCR of Smad3 (CTGF and Smad7) and Smad2 (Goosecoid and MixL) responsive genes as in FIG. 3D. Data reflect mean+/−sd from three experiments. […] (E) AKR-2B cells were transiently transfected with a BMP (BRE), EGF (SRE), or PDGF (MMP-1) reporter construct and luciferase activity determined following 12 hour incubation in the absence (−) or presence (+) of the indicated ligand (10 ng/mL BMP4, EGF, or PDGF), inhibitor (10 μM Dorsomophin; 3 μM Lapatinib; 2 μM CP868) or TAT-SNX9(SH3) fusion polypeptide (1.5 μM). […]
Soft agar assays were performed as described elsewhere (Rahimi et al., Cancer Res., 69(1):84-93 (2009)). […] Following 7 days growth at 37° C., the number of colonies>100 μm in diameter were counted using an Optronix Gelcount™ (Oxford Optronics, Milton, Abingdon, UK). […]

T1 sequence (Q8BUN5 whole entry): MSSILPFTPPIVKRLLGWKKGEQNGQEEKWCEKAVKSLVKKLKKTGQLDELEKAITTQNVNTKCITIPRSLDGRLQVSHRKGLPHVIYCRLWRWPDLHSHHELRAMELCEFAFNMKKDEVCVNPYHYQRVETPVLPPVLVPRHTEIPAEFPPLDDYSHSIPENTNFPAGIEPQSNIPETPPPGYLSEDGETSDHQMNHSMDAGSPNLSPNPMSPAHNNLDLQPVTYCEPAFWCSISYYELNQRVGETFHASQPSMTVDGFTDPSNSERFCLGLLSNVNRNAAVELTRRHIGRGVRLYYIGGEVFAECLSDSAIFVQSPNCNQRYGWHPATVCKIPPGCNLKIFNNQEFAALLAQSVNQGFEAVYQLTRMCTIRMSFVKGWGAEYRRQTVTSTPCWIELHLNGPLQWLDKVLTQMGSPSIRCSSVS

On to “TAT-SH3-2: TAT-SNX9(SH3) fusion polypeptide having SNX9 amino acids 21-51 (31 mer) (TVNEGEIITITNPDVGGGWLEGRNIKGERGL; left off: small tags and cut ends)”, for which the pSmad3 binding result with pSmad3 was “bound pSmad3 to a similar degree as a TAT-SNX9(SH3) fusion polypeptide having the full length SH3 domain”. For the same substance, in the test on AKR-2B cells, the Smad3-regulated biological responses entry is reported as “inhibitory”.

Take “TAT-SH3-2M: TAT-SH3-2 with G to V point mutations at amino acids 36-38; inactive TAT-SNX9 peptide unable to bind pSmad3 (TVNEGEIITITNPDVVVVWLEGRNIKGERGL; left off: small tags and cut ends)”: in the test with pSmad3, the pSmad3 binding result is “unable to bind pSmad3”. Moreover, the Smad3-regulated biological responses entry in the test with AKR-2B cells is given as “not inhibitory”.

The values are drawn from patent US10144929B2, “Polypeptide inhibitors of Smad3 polypeptide activities” (Mayo Foundation for Medical Education and Research, priority 2016, dated 2018).
